Data on 20 sequences can be found in the DeepSol protein solubility set.

The series in a line: soluble on expression in E. coli; label from the status in PepcDB or PDB records.
As to “MGSDKIHHHHHHMRRLFTSESVTEGHPDKIADQISDAILDAMLEQDPRSRVAVETLVTTGLVIIAGEVTTRAYVEIPDIARKTILEIGYTRAKYGFDGETCGVLTSIHSQSPDIALGVDKALEVKTGEEVADEFEALGAGDQGIMFGYATNETPEYMPLPITLAHKLAMRLAEVRKNGTLPFLRPDGKTQVTIEYEDDKPVRVDTVLISTQHDPDISQADLREAIIEHVINPVIPEQYRDDKMKILVNPTGRFVLGGPMADTGLTGRKIIVDTYGGWVPHGGGAFSGKDPTKVDRSAHYMARYVAKNVVAAGLADKFLIQLSYAIGVAKPVSIMIDTYGTAKVDEDKLLKVITELFDFRPGAIIKKLNLLRPIYRKTAAYGHFGRNEEEFTWEKLDMVDELKRAFNM”, the “soluble on expression in E. coli” value was “not soluble”.

As to “MAHHHHHHMARSLQDPRLSFYCEQYDHIAHRMNHYVLQFYFEDRTVEIREVTKNRLHLKRAHFPHLNRDDFKVGSSLSLLGGVIKLTAYADEVTRELCGERGEVTAVMFGEQLLPQLGRCLAVLTEECGFVALEMQMAWLPVETAAAYGVPPDLVEGRIVVVKCANTNALQRGIDFMARMPGARAAESVEEVGRWEQIVEKAKEQPVAILGDPNSTVVIIKPHALQKLAGGVIVQQLIDAGLEISGISLTNMTSQQANELLKPYKGVLPDFPDTMRSLMGTVWVLQFVSLDEGVDVVSVAREVCGPFDPVIAKELRPTSIRARFGVDRAHNAVHCCDLHEEGPLYSNFFFRPEDVDE”, the “soluble on expression in E. coli” value is reported as “not soluble”.

“MNEDMEFFNRFSHMYLHGFKNLSDMFAEPATEHGITLDEFYILYDIAEAKGKIRLMDIAESHGVTRSAISRLIGRLLRKDYLYQEAEDHDRRNKVLKLTPEGARIEHEVFTELIQRNREWRQSFSLAKQYQTLNLVEEFMDKFVNEDASKQTKKATYADTDLKRAEA”: the “soluble on expression in E. coli” value is listed as “not soluble”.

Regarding “MDKFRVQGPTKLQGEVTISGAKNAALPILFAALLAEEPVEIQNVPKLKDVDTSMKLLSQLGAKVERDGSVHIDARDVNVFCAPYDLVKTMRASIWALGPLVARFGQGQVSLPGGCTIGARPVDLHISGLEQLGATIKLEEGYVKASVDGRLKGAHIVMDKVSVGATVTIMCAATLAEGTTIIENAAREPEIVDTANFLITLGAKISGQGTDRIVIEGVERLGGGVYRVLPDRIETGTFLVAAAISRGKIICRNAQPDTLDAVLAKLRDAGADIEVGEDWISLDMHGKRPKAVNVRTAPHPAFPTDMQAQFTLLNLVAEGTGFITETVFENRFMHVPELSRMGAHAEIESNTVICHGVEKLSGAQVMATDLRASASLVLAGCIAEGTTVVDRIYHIDRGYERIEDKLRALGANIERVKGELVPR”, the “soluble on expression in E. coli” value was “soluble”.

For the sequence “MGSDKIHHHHHHMNEIAEVLPESMKNALSEIPEQQWLEIEEVRIRINRPVELIRRGQPVYLSYAGTAEDAHLILSRLSNYSMYTLEEELKKGYVTIRGGHRVGLAGRVITENGGVKGLRDIASFNIRIARQKLGIAEPLLPYLYQNSWLNTLIIGPPQTGKTTLLRDLARLSSTGKKNMLPVKTGIVDERSEIAGCLRGIPQHQFGQRIDVLDACPKAEGLMMMIRSMSPEVMIVDEIGRMEDTDALLEALHAGVSVIVSAHGWSISDLMKRPSLKRLWEERAFDRYLELSRAKGPGTVSQIYDKDGNVLSRTTGVKTC”, the “soluble on expression in E. coli” value is given as “not soluble”.

Take “SNHFGNHCTNTSGVVCHNNYNCTIDNSIHYADTRGVVSHHRENITGHHGLVFPAATMNGYGPATSFPDMRENGHLMVNQNRPVTLRPSMSQQQPQPQPLSDEYNKVETGTAEQVYVPSRD”: the “soluble on expression in E. coli” value is listed as “soluble”.

Turning to “NRGVTGGFGITQDITERKKVEEALRISNIYNRSLIEASPDPLVTIGQDGKITDVNNSTETVTGYSRDELIGTDFSDYFTEPERAKKGYQHVFLKGFVKDYPLEIQHKDGRVTQVLYNASVYRDESGEVIGVFAAARD”, the “soluble on expression in E. coli” value was “not soluble”.

Consider “HTERVGWLSGRIAEEMGMSEVFVTEIQFAAPLHDIGKIGIPDRILLKPGILTPEEFEIMKQHTTIGFRILSRSNSPILQLGAEIALTHHERWDGSGYPRGLKEREIPISGLIVAVADSFDA”, for which the “soluble on expression in E. coli” value is “not soluble”.

For the sequence “MGHHHHHHSHMADDIDIEAMLEAPYKKDENKLSSANGHEERSKKRKKSKSRSRSHERKRSKSKERKRSRDRERKKSKSRERKRSRSKERRRSRSRSRDRRFRGRYRSPYSGPKFNSAIRGKIGLPHSIKLSRRRSRSKSPFRKDKSPVREPIDNLTPEERDARTVFCMQLAARIRPRDLEEFFSTVGKVRDVRMISDRNSRRSKGIAYVEFVDVSSVPLAIGLTGQRVLGVPIIVQASQAEKNRAAAMANNLQKGSAGPMRLYVGSLHFNITEDMLRGIFEPFGRIESIQLMMDSETGRSKGYGFITFSDSECAKKALEQLNGFELAGRPMKVGHVTERTDASSASSFLDSDELERTGIDLGTTGRLQLMARLAEGTGLQIPPAAQQALQMSGSLAFGAVAEFSFVIDLQTRLSQQTEASALAAAASVQPLATQCFQLSNMFNPQTEEEVGWDTEIKDDVIEECNKHGGVIHIYVDKNSAQGNVYVKCPSIAAAIAAVNALHGRWFAGKMITAAYVPLPTYHNLFPDSMTATQLLVPSRR”, the “soluble on expression in E. coli” value is “soluble”.

Turning to “MAKKTSSKGKLPPGPFPLPIIGNLFQLELKNIPKSFTRLAQRFGPVFTLYVGSQRMVVMHGYKAVKEALLDYKDEFSGRGDLPAFHAHRDRGIIFNNGPTWKDIRRFSLTTLRNYGMGKQGNESRIQREAHFLLEALRKTQGQPFDPTFLIGCAPCNVIADILFRKHFDYNDEKFLRLMYLFNENFHLLSTPWLQLYNNFPSFLHYLPGSHRKVIKNVAEVKEYVSERVKEHHQSLDPNCPRDLTDCLLVEMEKEKHSAERLYTMDGITVTVADLFFAGTETTSTTLRYGLLILMKYPEIEEKLHEEIDRVIGPSRIPAIKDRQEMPYMDAVVHEIQRFITLVPSNLPHEATRDTIFRGYLIPKGTVVVPTLDSVLYDNQEFPDPEKFKPEHFLNENGKFKYSDYFKPFSTGKRVCAGEGLARMELFLLLCAILQHFNLKPLVDPKDIDLSPIHIGFGCIPPRYKLCVIPRSHHHH”, the “soluble on expression in E. coli” value is reported as “soluble”.

As to “MGSDKIHHHHHHMRAALAQGCDPMVLTGEVWPKWRIWTRDADRFLDDAPLNKLTAPAGIPLSSFRAATLKSVAERVSKGPLPDRAVWPWILALGARNTKRRSGLQYCPDCLRDDRIPYYRLQWRLAWHVGCEHHHCSLLDRCPHCRAPLEPHRLHAEDGHMAVCATCRGDLRDVGAITPCSDDAMAFQDAGDEAIRHGSGQFMAHPTETDAWFAGASFLSALLRRANRSDAEALHVFLERMGVAVPELPLNPGTGVELLGTAERHLLLGALWKLMRTDLADVSKYLQESGITRQGFVSKGERMPDLFAETFAQLPDNARGPRKQAVRDPGQPRPRHEVMRMWRRLQRKLEMSQR”, the “soluble on expression in E. coli” value was “not soluble”.

Take “MGHHHHHHSHIAMRRDRGPKPALGGAGEVEPGGMAASPTGRPRRLQRYLQSGEFDQFRDFPIFESNFVQVTRLGEVANEVTMGVAASSPALELPDLLLLAGPAKENGHLQLFGLFPLKFVQLFVHDKSRCQLEVKLNTSRTFYLQLRAPLKTRDREFGQWVRLLYRLRFLSASAVPFTQE”: the “soluble on expression in E. coli” value is recorded as “not soluble”.

“MVATVVNVQVKNEEKIETAPKKVVFDTKNLNLWYGEDHALKDINLSIHENEVTAIIGPSGCGKSTYLKTLNRMVELVPIVRTTGVIEYRERNIFDKSYPVEELRTHVGMVFQKPNPFPKSIYENVAYGPKIHGISDKKTLDEIVEKSLRGAAIWDELKDRLHDNAYGLSGGQQQRLCIARCLAIEPDVILMDEPTSALDPISTLKVEELIQELKKDFSIVIVTHNMQQAARISDKTAFFLSGEVVEYTDTNKLFTTPSDKRTEDYITGRFG”: the “soluble on expression in E. coli” value is recorded as “not soluble”.

As to “SLRLPTVFRQMRPVSRVLAPHLTRAYAKDVKFGADARALMLQGVDLLADAVAVTMGPKGRTVIIEQSWGSPKVTKDGVTVAKSIDLKDKYKNIGAKLVQDVANNTNEEAGDGTTTATVLARSIAKEGFEKISKGANPVEIRRGVMLAVDAVIAELKKQSKPVTTPEEIAQVATISANGDKEIGNIISDAMKKVGRKGVITVKDGKTLNDELEIIEGMKFDRGYISPYFINTSKGQKCEFQDAYVLLSEKKISSIQSIVPALEIANAHRKPLVIIAEDVDGEALSTLVLNRLKVGLQVVAVKAPGFGDNRKNQLKDMAIATGGAVFGEEGLTLNLEDVQPHDLGKVGEVIVTKDDAMLLKGKGDKAQIEKRIQEIIEQLDVTTSEYEKEKLNERLAKLSDGVAVLKVGGTSDVEVNEKKDRVTDALNATRAAVEEGIVLGGGCALLRCIPALDSLTPANEDQKIGIEIIKRTLKIPAMTIAKNAGVEGSLIVEKIMQSSSEVGYDAMAGDFVNMVEKGIIDPTKVVRTALLDAAGVASLLTTAEVVVTEIPKEEKDPGMGAMGGMGGGMGGGMF”, the “soluble on expression in E. coli” value was “soluble”.

For the sequence “MYPDDSLTLHTDLYQINMMQVYFDQGIHNKKAVFEVYFRQQPFKNGYAVFAGLERIVNYLEDLRFSDSDIAYLESLGYHGAFLDYLRNFKLELTVRSAQEGDLVFANEPIVQVEGPLAQCQLVETALLNIVNYQTLVATKAARIRSVIEDEPLMEFGTRRAQEMDAAIWGTRAAVIGGANGTSNVRAGKLFDIPVLGTHAHALVQVYGNDYEAFKAYAATHKNCVFLVDTYDTLRIGVPAAIQVARELGDQINFMGVRIDSGDIAYISKKVRQQLDEAGFTEAKIYASNDLDENTILNLKMQKAKIDVWGVGTKLITAYDQPALGAVYKIVAIEDETGQMRNTIKLSNNAEKVSTPGKKQVWRITSREKGKSEGDYITYDGVDISDMTEIKMFHPTYTYIKKTVRNFDAVPLLVDIFKEGILVYNLPSLTDIQDYARKEFDKLWDEYKRVLNPQHYPVDLARDVWQDKMDLIDKMRKEALGEGEEE”, the “soluble on expression in E. coli” value is recorded as “not soluble”.

For “MPQDPRHPEHQYLDLVKHILENGARRMDRTGTGTLSVFGATMRFSLEDNTFPLLTTRRVFYRGVVEELLFFLRGETDSKVLEKKGVRIWEKNGAKQFLQSVGIDREEGDLGPIYGFQWRHFGARYETSASSYEGKGVDQIASAIAAIRANPASRRIVVSAWNPTDLGSMALPPCHVLFQFNVTDGKLSCAMYQRSGDMGLGVPFNIASYSLLTILVAHLTGLQPGEFVHFLGDAHVYLDHVDSLRQQIQRPPRAFPKLFVSPKGPRTEPEHFQYEDFELVGYDPHPAIKMNMSA”, the “soluble on expression in E. coli” value was “soluble”.

Consider “MAMTLVRRDARPMELTPFRTWSPFTLVDEVNRLFEEAFSDLVRPAAAYVAPADLYETDEALILEMAVPGMTPEDLEVSLEGNKLTIRGQVKPVADERVRRYYLQEMAHGSFVRTFTLPVEVDASGVKAEFRNGILRLTLPKVAEARARRIPIEVVQ”, for which the “soluble on expression in E. coli” value is reported as “soluble”.

Turning to “GSKAEKTLGDFAAEYAKSNRSTCKGCMEKIEKGQVRLSKKMVDPEKPQLGMIDRWYHPGCFVKNREELGFRPEYSASQLKGFSLLATEDKEALKKQLPGVKSEGKRKGDEVDGVDEVAKKK”, the “soluble on expression in E. coli” value is listed as “soluble”.

On to “MMAKLVVCIIDGMADPPPPAGGVTPLAAAHTPHCDTLARHSVAGLCHVIQPEAVPGSEAGLSALLCCEAAASIARGPVEALAQGDPVAPHETVWRLNLVSLGPRGNYYNPAPLLDAATETAARKMLDRALGTQGYSLLGGKGFRHLCAGTEPPVLRDGPQDVCGMTPDTGQADLNSYCPRLARAMTEANVLFRRSRMDLAVWPWGAGTMPDLPGFAETTGQTGALAGGVPLARGLALALGMTAPSIAGATGGIDTDLGAKTRAAIALAAGHDVVYLHVEAPDLHAHALDRVAKRRAIERIDAEVVGPLHMALPDATLLITCDHATDCATGRHMAIPVPFILHKPDGPQDGIATFSEAASARTGIRIDSAATLVRLALADLEHHHHHH”, for which the “soluble on expression in E. coli” value is “soluble”.

“MALTLAKNQTISLEKTAGTGLKKVSMGLGWDPEKASGFFGKLLGGGGGDIDLDASCIMLDADKKPLDLVWFRQLQSRDGAILHSGDNRTGEGAGDDETISVDLEKLPATVKYLVFTVNSFTGQNFEKVANAYCRIVDLGTRNELGRFDLSEKGQHTGVVMSYLSRTPSGWDFTAVGQATNGRTADDLVELAIGAVRA”: the “soluble on expression in E. coli” value is reported as “not soluble”.
